# Data published in US20250066503A1, “CELL INJURY INDUCING THERAPEUTIC DRUG FOR USE IN CANCER THERAPY” (CHUGAI SEIYAKU KABUSHIKI KAISHA, priority 2016, published 2025).
# What was measured:
# [1] = tested on: cell lines derived from various cancer types (GPC3-expressing target cells); experiment: TDCC activity by LDH release test with human PBMCs as effector cells; format: cell-based; details: about 24 hours
# Procedure: TDCC activity of each test antibody was measured by the method described below. Human peripheral blood mononuclear cells (hereinafter referred to as human PBMCs) were used as effector cells and TDCC activity of each test antibody was measured as follows.
# 50 ml of peripheral blood was collected from a healthy person in Chugai Pharmaceutical Co. Ltd. using a syringe pre-loaded with 500 μl of 5000 units/5 ml heparin solution. The peripheral blood diluted two-fold with PBS was divided into four aliquots and added to Leucosep tubes for lymphocyte separation (GE Healthcare) which had been loaded with 15 ml of Ficoll-Paque PLUS and centrifuged in advance. […]
# TDCC activity was assessed by an LDH release method (LDH Cytotoxicity Detection Kit, TAKARA). […] The absorbance at 490 to 492 nm was measured with a plate reader. The reference wavelength used was 600 to 620 nm, and the absorbance was subtracted from that at 490 to 492 nm. […]
# Cytotoxic activity was determined based on this equation.
# Here, A represents the absorbance of a mixture of target cells, effector cells, and antibody; B represents the absorbance of effector cells; C represents the absorbance of target cells; and D represents the absorbance of target cells with Triton X-100 added.
# [2] = tested on: MKN45 and NCI-H446 tumor tissues; experiment: Comprehensive RNA analysis of tumor tissues using nCounter; format: in vivo, humanized NOG mice; details: in combination with paclitaxel or capecitabine; compared to antibody-38 or the chemotherapeutic agent alone
# Procedure: RNA was extracted from tumor samples after administration of paclitaxel, cisplatin, or capecitabine and antibody-38. Comprehensive RNA analysis using nCounter, tumor infiltrating lymphocyte (TIL) analysis, and pathological analysis were performed as follows.
# (§1) The tumor samples were prepared as follows. The tumor samples when antibody-38 was used in combination with a chemotherapeutic agent in the humanized NOG mouse model were prepared by the procedure described below. 2.5 Gy of X ray was irradiated to NOG mice (In-Vivo Science Inc., Y). On the following day, 1×10^5 CD34-positive hematopoietic stem cells which are derived from umbilical cord blood were transplanted into the NOG mice by tail vein injection. After 16 to 20 weeks, each of human cancer cell lines (MKN45 and NCI-H446) was mixed with Matrigel™ Basement Membrane Matrix, and transplanted subcutaneously into the humanized NOG mice. The day of transplantation was defined as Day 0.
# When tumor was established, the mice were separated into groups based on tumor size and body weight. Antibody-38 and the pharmaceutical agents for use in combination were administered according to the dose and dosing regimen described in Table 21. […]
# RNA analysis was performed as follows. RNA was extracted (miRNeasy Mini Kit, QIAGEN) from the above-described tumor samples and the RNA concentrations were determined (NanoDrop, Thermo Fisher Scientific). […]
# NCI-H446 tumor tissues [3] = experiment: Tumor infiltrating lymphocyte (TIL) analysis of tumor tissues; format: in vivo, humanized NOG mice; details: in combination with a chemotherapeutic agent, paclitaxel or capecitabine; sixth day after antibody-38 administration; compared to either alone
# Procedure: as §1
# (§2) When tumor was established, the mice were separated into groups based on tumor size and body weight. Antibody-38 and the pharmaceutical agents for use in combination were administered according to the dose and dosing regimen described in Table 21. The mice were euthanized at the timing described in Table 21, and tumor was excised and preserved for use in tumor infiltrating lymphocyte (TIL) analysis, pathological analysis, or RNA analysis.
# TIL analysis was performed as follows. Tumor tissues which were dissected from mice transplanted with NCI-H446 described in Table 21 on the sixth day after antibody-38 administration were dissociated into cells by enzyme treatment using gentle MACS™ Octo Dissociator. […]
# NCI-H446 tumor tissues [4] = experiment: Histopathological evaluation of HE-stained tumor tissues; format: in vivo, humanized NOG mice
# Procedure: as §1, §2
# With respect to histological analysis of tumor tissues, tumor samples from mice six days after administration of antibody-38 and paclitaxel were fixed in 10% formaldehyde neutral buffer solution. […]
molecule,measurement,setting,value
"antibody-38: anti-human CD3ε chain and anti-human GPC3 bispecific antibody; H chains SEQ ID NO: 385 and 402, common L chains SEQ ID NO: 410 (antibody, An artificially generated sequence) heavy 1: QVQLVQSGAEVKKPGASVTVSCKASGYTFTDYEMHWIRQPPGEGLEWIGAIDGPTPDTAYSEKFKGRVTLTADKSTSTAYMELSSLTSEDTAVYYCTRFYSYTYWGQGTLVTVSSASTKGPSVFPLAPCSRSTSESTAALGCLVKDYFPEPVTVSWNSGALTSGVHTFPAVLQSSGLYSLSSVVTVPSSSLGTQTYTCNVDHKPSNTKVDKRVESKYGPPCPPCPAPEFRGGPKVFLFPPKPKDTLMISRTPEVTCVVVDVSQEDPEVQFNWYVDGVEVHNAKTKPREEQFASTYRVVSVLTVLHQDWLNGKEYKCKVSNKGLPSSIEKTISKAKGQPREPQVYTLPPSQEEMTKNQVSLTCLVKGFYPSDIAVEWESNGQPENNYKTTPPVLDSDGSFFLYSKLTVDKSRWQEGNVFSCSVMHEALHNHYTQESLSLSP heavy 2: QVQLVESGGGVVQPGGSLRLSCAASGFTFSNAWMHWVRQAPGKGLEWVAQIKDKSQNYATYVAESVKGRFTISRADSKNSIYLQMNSLKTEDTAVYYCRYVHYAAGYGVDIWGQGTTVTVSSASTKGPSVFPLAPCSRSTSESTAALGCLVKDYFPEPVTVSWNSGALTSGVHTFPAVLQSSGLYSLSSVVTVPSSSLGTKTYTCNVDHKPSNTKVDKRVESKYGPPCPPCPAPEFRGGPKVFLFPPKPKDTLMISRTPEVTCVVVDVSQEDPEVQFNWYVDGVEVHNAKTKPREEQFASTYRVVSVLTVLHQDWLNGKEYKCKVSNKGLPSSIEKTISKAKGQPREPQVYTLPPSQKEMTKNQVSLTCLVKGFYPSDIAVEWESNGQPENNYKTTPPVLDSDGSFFLYSKLTVDKSRWQEGNVFSCSVMHEALHNHYTQKSLSLSP light: DIVMTQSPLSLPVTPGEPASISCRSSQPLVHSNRNTYLHWYQQKPGQAPRLLIYKVSNRFSGVPDRFSGSGSGTDFTLKISRVEAEDVGVYYCGQGTQVPYTFGQGTKLEIKRTVAAPSVFIFPPSDEQLKSGTASVVCLLNNFYPREAKVQWKVDNALQSGNSQESVTEQDSKDSTYSLSSTLTLSKADYEKHKVYACEVTHQGLSSPVTKSFNRGEC",TDCC activity (LDH release),[1],clearly observed
same,expressions of genes involved in the progress of cell cycle,[2],suppressed
same,"expressions of immune cell markers, chemokines, cytokines, genes involved in cell death, genes involved in cell cycle regulation",[2],increased
same,"cell populations expressing T cell markers, activated T cell markers, and proteins involved in cytotoxic activity",NCI-H446 tumor tissues [3],increased
same,immune cell infiltration,"NCI-H446 tumor tissues [4]; antibody 38 administered, six days after administration",observed around the tumor periphery
same,immune cell infiltration area,NCI-H446 tumor tissues [4]; antibody-38 in combination with paclitaxel,expanded
